From article PMC9140718
Values belong to the substance of their own block, whether it stands above or below them.

How the values were obtained:
[1] = biological target: plasma FXI of Maine Coon cats homozygous for the M516 variant (feline (endogenous in Maine Coon cat plasma)); test: non-reducing SDS-PAGE with Western blot; citrated plasma (1 µL) on non-reducing 7.5% polyacrylamide gels; detected with biotinylated IgG 14E11 and streptavidin-horseradish peroxidase
[2] = biological target: plasma FXI of Maine Coon cats homozygous for wild-type FXI (feline (endogenous in Maine Coon cat plasma)); test: as above
[3] = biological target: plasma-derived human FXI (pFXI) (human); test: SDS-PAGE under non-reducing and reducing conditions; purified FXI on a 7.5% polyacrylamide gel, Coomassie blue stained; homodimer unreduced, monomer reduced
[4] = biological target: recombinant variant feline factor XI (fFXI-M516) (feline (Felis catus)); test: as above
[5] = biological target: recombinant wild-type feline factor XI (fFXI-V516) (feline (Felis catus)); test: as above
[6] = biological target: recombinant wild-type human factor XI (hFXI-V516) (human); test: as above

Substance: plasma-derived human FXI (pFXI) (natural protein)
stoichiometry N [3]: 2

Substance: recombinant variant feline factor XI (fFXI-M516) (natural protein)
stoichiometry N [4]: 2

Substance: recombinant wild-type feline factor XI (fFXI-V516) (natural protein)
stoichiometry N [5]: 2

Substance: recombinant wild-type human factor XI (hFXI-V516) (natural protein)
stoichiometry N [6]: 2

Further lines, results first:

stoichiometry N [1]: 2
Substance: plasma FXI of Maine Coon cats homozygous for the M516 variant (natural protein)

stoichiometry N [2]: 2
Substance: plasma FXI of Maine Coon cats homozygous for wild-type FXI (natural protein)
